Bridge positions count the residues as written; N and C are the ends. Ends that are not written are not given here.

Our source for the IC50 values is US20140066368A1.

The assay deals with amylin receptor (membrane-bound, rat basal forebrain membranes containing the nucleus accumbens and surrounding regions) (rat). Briefly: competition with ^125I Bolton-Hunter amylin on rat basal forebrain membranes, filtration.
Usually IC50 stands for the midpoint of a concentration-inhibition curve. Higher therefore signals weaker potency in that assay. For ^29Pro-h-Amylin (peptide), the IC50 was found to be 0.064 nM. On to ^1Ala-h-Amylin (peptide), for which the IC50 amounted to 0.148 nM.

With ^28Pro-h-Amylin (peptide), the IC50 was 0.015 nM. Against the preceding molecule, the IC50 is about 9.9-fold lower. On to ^1Ser-h-Amylin (peptide), for which the IC50 worked out at 0.033 nM. KCNTATCATQRLANFLVHSSNNFGPILPPTNVGSNTY-NH2 (disulfide 2-7) [^25,28,29Pro-h-Amylin]: the IC50 was determined as 0.01 nM. Compared with the last molecule, the IC50 is about 3.3-fold lower.

CNTATCATQRLANFLVHSSNNFGPILPSTNVGSNTY [des-^1Lys^25,28Pro-h-Amylin] had an IC50 of 0.085 nM. With CNTATCATQRLANFLVRSSNNFGPILPPTNVGSNTY [des-^1Lys^18Arg^25,28,29Pro-h-Amylin], the IC50 is 0.021 nM. Then CNTATCATQRLANFLVRSSNNFGPILPSTNVGSNTY [des-^1Lys^18Arg^25,28Pro-h-Amylin], with 0.082 nM; and CNTATCATQRLANFLVHSSNNFGPILPPTNVGSNTY [des-^1Lys^25,28,29Pro-h-Amylin], with 0.014 nM; and KCNTATCATQRLANFLVHSSNNFGPILPSTNVGSNTY [^25,28Pro-h-Amylin], with 0.026 nM. Molecule KCNTATCATQRLANFLVHSSNNFGPVLPPTNVGSNTY [^25Pro^26Val^28,29Pro-h-Amylin] yielded a concentration for half-maximal inhibition (IC50) of 0.018 nM.

Regarding KCNTATCATQRLANFLVRSSNNFGPILPSTNVGSNTY [^18Arg^25,28Pro-h-Amylin], the IC50 worked out at 0.032 nM.

Take KCNTATCATQRLANFLVRSSNNFGPILPPTNVGSNTY [^18Arg^25,28,29Pro-h-Amylin]: the concentration for half-maximal inhibition (IC50) amounted to 0.021 nM. Consider KDNTATKATQRLANFLVHSSNNFGAILSSTNVGSNTY (lactam 2-7; ends not checked) [^2,7Cyclo-[^2Asp,^7Lys]-h-Amylin], for which the IC50 is 0.31 nM.
